This is an account of results in publication doi:10.1101/2021.05.25.445566 (bioRxiv, 2021).

B3: MlaE, His-tagged (His-E), permease of the MlaFEDB ABC transporter (natural protein)
chain: MLLNALASLGHKGIKTLRTFGRAGLMLFNALVGKPEFRKHAPLLVRQLYNVGVLSMLIIVVSGVFIGMVLGLQGYLVLTTYSAETSLGMLVALSLLRELGPVVAALLFAGRAGSALTAEIGLMRATEQLSSMEMMAVDPLRRVISPRFWAGVISLPLLTVIFVAVGIWGGSLVGVSWKGIDSGFFWSAMQNAVDWRMDLVNCLIKSVVFAITVTWISLFNGYDAIPTSAGISRATTRTVVHSSLAVLGLDFVLTALMFGN

For data set [1], the target named is B3. As to the kind of experiment: SEC. Background: Size exclusion chromatography separates by hydrodynamic size, large species first.
Data set [2] concerns the molecule itself. The data set can be described thus: SDS-PAGE of SDS-resistant oligomers.
Data set [3] deals with T1, MlaF K47A (Walker A variant) (UniProt P63386 1-269, K47A).
T1 sequence: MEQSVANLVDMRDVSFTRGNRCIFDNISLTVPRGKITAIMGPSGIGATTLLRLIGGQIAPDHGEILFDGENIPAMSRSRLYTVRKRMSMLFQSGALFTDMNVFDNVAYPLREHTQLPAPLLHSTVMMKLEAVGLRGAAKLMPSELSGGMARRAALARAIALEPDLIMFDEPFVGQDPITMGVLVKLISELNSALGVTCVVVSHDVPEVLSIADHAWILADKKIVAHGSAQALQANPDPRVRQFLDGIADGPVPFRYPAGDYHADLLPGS
The data set can be described thus: SEC.

Data set [4] addresses T2, MlaF, nucleotide binding domain of the MlaFEDB ABC transporter (UniProt P63386 1-269).
T2 sequence: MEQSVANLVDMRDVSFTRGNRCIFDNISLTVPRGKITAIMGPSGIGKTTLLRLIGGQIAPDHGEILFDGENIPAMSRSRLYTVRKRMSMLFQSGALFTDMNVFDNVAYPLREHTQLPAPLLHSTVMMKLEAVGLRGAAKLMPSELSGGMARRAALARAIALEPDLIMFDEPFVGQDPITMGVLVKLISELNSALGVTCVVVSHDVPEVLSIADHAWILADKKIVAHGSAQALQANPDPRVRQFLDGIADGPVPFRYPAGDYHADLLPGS
The data set can be described thus: SEC.

B1: MlaD, substrate-binding MCE-domain protein of the MlaFEDB complex (natural protein)
chain: MQTKKNEIWVGIFLLAALLAALFVCLKAANVTSIRTEPTYTLYATFDNIGGLKARSPVSIGGVVVGRVADITLDPKTYLPRVTLEIEQRYNHIPDTSSLSIRTSGLLGEQYLALNVGFEDPELGTAILKDGDTIQDTKSAMVLEDLIGQFLYGSKGDDNKNSGDAPAAAPGNNETTEPVGTTK
For the molecule B1, the binding result in data set [1] was “binds”.

B2: MlaD L106N/L107N (natural protein)
chain: MQTKKNEIWVGIFLLAALLAALFVCLKAANVTSIRTEPTYTLYATFDNIGGLKARSPVSIGGVVVGRVADITLDPKTYLPRVTLEIEQRYNHIPDTSSLSIRTSGNNGEQYLALNVGFEDPELGTAILKDGDTIQDTKSAMVLEDLIGQFLYGSKGDDNKNSGDAPAAAPGNNETTEPVGTTK
Regarding B2, the binding result in data set [1] was “binds”. Moreover, in data set [2], the “stoichiometry N” value stood at 6.
In the case of B3, the binding result in data set [3] and in data set [4] was “binds” each time.

B4: MlaD Δ141-183 (natural protein)
chain: MQTKKNEIWVGIFLLAALLAALFVCLKAANVTSIRTEPTYTLYATFDNIGGLKARSPVSIGGVVVGRVADITLDPKTYLPRVTLEIEQRYNHIPDTSSLSIRTSGLLGEQYLALNVGFEDPELGTAILKDGDTIQDTKSA
For the molecule B4, the binding result in data set [1] was “binds”. Further, the “stoichiometry N” value in data set [2] stood at 6.

B5: MlaB, cytoplasmic STAS-domain protein of the MlaFEDB complex (natural protein)
chain: MSESLSWMQTGDTLALSGELDQDVLLPLWEMREEAVKGITCIDLSRVSRVDTGGLALLLHLIDLAKKQGNNVTLQGVNDKVYTLAKLYNLPADVLPR
On to B5, for which the binding result in data set [1] is given as “binds”.

B6: MlaB T52A (natural protein)
chain: MSESLSWMQTGDTLALSGELDQDVLLPLWEMREEAVKGITCIDLSRVSRVDAGGLALLLHLIDLAKKQGNNVTLQGVNDKVYTLAKLYNLPADVLPR
For B6, the binding result in data set [1] is given as “binds”.

The term stoichiometry N denotes a count of units in the complex or per binding partner.
